Entries after “also recorded” stand apart in the source; their conditions may differ.
T1: α1 -ACT (Homo sapiens, UniProt P01011)
T1 sequence (P01011 24-423): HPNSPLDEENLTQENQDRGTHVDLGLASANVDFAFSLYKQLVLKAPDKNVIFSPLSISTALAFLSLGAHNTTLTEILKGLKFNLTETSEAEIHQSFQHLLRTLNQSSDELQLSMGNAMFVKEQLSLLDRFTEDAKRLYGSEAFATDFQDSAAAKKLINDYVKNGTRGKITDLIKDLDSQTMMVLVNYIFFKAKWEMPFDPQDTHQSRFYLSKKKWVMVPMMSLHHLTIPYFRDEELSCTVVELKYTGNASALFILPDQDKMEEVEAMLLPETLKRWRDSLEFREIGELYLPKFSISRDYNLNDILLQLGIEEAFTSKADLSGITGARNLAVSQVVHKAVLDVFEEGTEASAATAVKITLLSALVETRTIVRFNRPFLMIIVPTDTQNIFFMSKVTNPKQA

B1: α1 -ACT: protease inhibitor α1-antichymotrypsin, amyloid associated protein (protein, UniProt P01011 24-423, looked up)
Alpha-1-antichymotrypsin: T1 sequence (P01011 24-423)

What was measured:
Aβ1-42 [1] = target: T2, Aβ1-42 (Homo sapiens, UniProt P05067); test: Aβ filament formation quantitated by electron microscopy (filament crossovers); assay type: biochemical; conditions: molar ratio 4:1, 18 hours
T2 sequence (P05067 672-713): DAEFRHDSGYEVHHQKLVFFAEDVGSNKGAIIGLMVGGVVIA
Method: At 18 hours, filaments were applied to carbon-coated Formvar on 200 mesh copper grids, dried, negatively stained with 3% uranyl acetate and visualized in a JEOL-100CX electron microscope. Many small and a few large filaments were visible in the electron micrograph and are representative of the products of this polymerization reaction.
The degree of filament formation was analyzed using electron microscopy. The reaction mixture was diluted with water or buffer. A Formvar-coated copper electron microscope grid was touched briefly to a droplet of the reaction mixture, allowing the filaments to stick to the Formvar plastic film. This procedure was also performed with Formvar which was precoated with carbon prior to the sticking of the filaments to the surface. The filaments were then stained with either a solution of uranyl acetate or sprayed ("shadowed") with a heavy metal such as platinum to allow their visualization.
The Aβ1-42 peptide was incubated in the presence of purified Apolipoproteins E2, E3 and E4 and α1 -ACT, ApoAI and ApoAII at a molar ratio of 4:1, as described in Examples 1 and 2. Electron microscopic examination of the reaction products was used to quantitate the amount of Aβ filament formation from the reaction of Aβ with ApoE3, ApoE4 or α1 -ACT. Five randomly chosen electron micrographs of each reaction product after 18 hours of incubation as in Examples 1 and 2 were analyzed by counting the number of crossovers that the filaments underwent with each other. This provides a measure of both the number and length of the amyloid filaments per unit area of the grid. […] The formation of Aβ filaments was inhibited when ApoE4 was incubated with Aβ in the presence of ApoE2 and equimolar amounts of ApoE4 and ApoE2 were used. Reducing the amount of Aβ filament formed to levels produced by the control protein, BSA (see FIG. 3).

α1 -ACT [2] = target: T1, α1 -ACT; conditions: disclosed in U.S. Ser. No. 08/179,574; cited from earlier work
α1 -ACT [3] = target: T1, α1 -ACT; conditions: disclosed in U.S. Ser. No. 08/179,574; cited from earlier work; remark: listed apart in the source
human cortical neurons = test: Neurotoxicity of Aβ filaments formed with promoting factors, MTT assay (Example 4); assay type: cell-based; conditions: applied day 12, MTT day 16
Method: Certain promoters of the assembly of Aβ filaments of amyloid filaments formed in vitro also result in these filaments being neurotoxic. This was determined by using fetal human cortical tissue from 18-22 week gestation were used for this study. The protocol obtaining postmortem fetal tissue complied with all federal guidelines for federal research. The cortical cell culture were prepared as follows. The frontal and temporal lobes were removed from fetal brain. Cells were disassociated in calcium and magnesium free Hank's balanced salt solution containing 0.2% […] for 10 minutes at room temperature, and subsequently disassociated in serum-containing Dulbecco's Modified Eagle Medium (D-MEM) with DNase (0.2 mg/ml) for three times. The cells were plated onto laminin (10 μg/ml) coated 96-well plate ([…]) in a neuronbasal medium supplemented with B27 (Gibco), 2 mM glutamine and 1x antibiotic antimycotic solution and kept in a humidified 5% CO2 atmosphere. […]
The products of the reactions shown in FIG. 3 were both applied to two or three sister cultured wells on day 12. Cell viability was evaluated by morphological criteria and colorimetric MTT (Tetrazolium) on day 16. […] The plates were read on a BT 1000 microreader, using a test wavelength of 550 nm, a reference wavelength of 650 nm. The plates were routinely read within 20 minutes of addition of DMSO.

[4] = system: primary human cortical neurons; test: Promotion of Aβ1-42 neurotoxicity by pathological chaperones, MTT assay (Example 12); assay type: cell-based; conditions: Aβ1-42 80 μM with 0.4 μM protein, 48 hours at 22° C.; MTT on day 4
Method: Biosynthetic Aβ1-42 (80 μM) was incubated with ACT (CalBiochem), purified human apoE and individual control protein (0.4 μM) in 100 μl of 10 μM Tris-HCl, pH 7.0 for 48 hours at 22° C. The 12.5 μl of each reaction product was then added to 14 days old primary human cortical neurons in culture. The cell viability was measured by a colorimetric MTT (Sigma) assay on day 4. Data are expressed ±S.E.M. in FIGS. 7-9. ACT and apoE4 induced a 2- and 4-fold increase in neurotoxicity of Aβ1-42, respectively. […] Since Aβ1-42 is prone to self-aggregate into filaments, only aliquots of each preparation of Aβ1-42 devoid of filaments, as judged by electron microscopy, were used for experiments.
Method of cell culture: The cortical neuron cultures were prepared as follows. Frontal lobes of brain were removed from an electively terminated human fetus on gestational age of 18-21 weeks. Cortical cells were dissociated in serum-free medium containing 0.2% trypsin (Sigma) and 25 μg/ml DNase I (Sigma) and plated 4×10^4 cells per well (96-well plate, Falcon) precoated with 10 μg/ml laminin (Gibco). The cells were cultured in DMEM (Gibco) supplemented with 10% fetal calf serum (Gibco) and 2 mM glutamine. Cultures were kept at 37° C. in a 7% CO2 atmosphere. After day 4 in vitro, non-neuronal cell division was halted by exposure to 10^-5 M cytosine arabinoside. […]

Aβ1-42 [5] = target: T2, Aβ1-42; test: Aβ filament assembly monitored by light scattering; assay type: biochemical; conditions: Aβ1-42 80 μM, molar ratio 200:1, light scattering
Method: Biosynthetic Aβ1-42 was incubated at a concentration of 80 μM in 100 μl of 10 μM Tris-HCl; pH 7.0 at 22° C. for 8, 24 and 48 hours. Assembly of Aβ into high molecular weight filamentous structures was monitored by light scattering at […]. Light scattering increases linearly according to the size and number of filaments formed. The results are shown in FIG. 1 and indicate that Aβ peptide spontaneously forms amyloid filaments, starting after about 8 hours of incubation; the rate of formation levels off after about 24 hours. The Aβ1-42 was incubated, as described in Example 1, in the presence or absence of α1 -antichymotrypsin or a control protein (BSA) at a molar ratio of 200:1. Filament assembly was monitored by light scattering. The results are shown in FIG. 2 and indicate that α1 -ACT results in the rate of filament formation being enhanced about ten-fold over the controls. Formation of filaments was essentially complete after about 8 hours.

Molecule | promotion of Aβ filament formation (in words) (Aβ1-42 [1]) | neurotoxicity of the reaction mixture of Aβ plus the substance (human cortical neurons) | further results
ApoAI: Apolipoprotein AI | inactive | – | –
ApoAII: Apolipoprotein AII | inactive | – | –
Aβ1-28: peptide corresponding to amino acids 1-28 of the N-terminal of Aβ peptide | – | – | effect on the ability of α1-ACT to inhibit chymotrypsin (α1 -ACT [2]): suppress the ability of α1 -ACT to inhibit chymotrypsin; complex formation with α1-ACT (α1 -ACT [3]): form stable complexes
Aβ: Alzheimer's β-peptide, 39-42 amino acid peptide; biosynthetic Aβ1-42 used in the examples [reference compound] | – | neurotoxic | –
B1 | promote the formation of Aβ filaments | greatest neurotoxicity | increase in neurotoxicity of Aβ1-42 [4]: 2 fold; enhancement of the rate of Aβ filament formation over the controls (Aβ1-42 [5]): at least ten; also recorded: about ten

From patent publication US6214569A, “Methods for screening for inhibitors of Alzheimer β-peptide filament formation” (President and Fellows of Harvard College, priority 1997, dated 2001)
